Target: T1, beta-catenin (Homo sapiens, UniProt P35222)
T1 construct: made in house; host or cells: E. coli BL21 (DE3) pLysS
T1 sequence (P35222 134-665): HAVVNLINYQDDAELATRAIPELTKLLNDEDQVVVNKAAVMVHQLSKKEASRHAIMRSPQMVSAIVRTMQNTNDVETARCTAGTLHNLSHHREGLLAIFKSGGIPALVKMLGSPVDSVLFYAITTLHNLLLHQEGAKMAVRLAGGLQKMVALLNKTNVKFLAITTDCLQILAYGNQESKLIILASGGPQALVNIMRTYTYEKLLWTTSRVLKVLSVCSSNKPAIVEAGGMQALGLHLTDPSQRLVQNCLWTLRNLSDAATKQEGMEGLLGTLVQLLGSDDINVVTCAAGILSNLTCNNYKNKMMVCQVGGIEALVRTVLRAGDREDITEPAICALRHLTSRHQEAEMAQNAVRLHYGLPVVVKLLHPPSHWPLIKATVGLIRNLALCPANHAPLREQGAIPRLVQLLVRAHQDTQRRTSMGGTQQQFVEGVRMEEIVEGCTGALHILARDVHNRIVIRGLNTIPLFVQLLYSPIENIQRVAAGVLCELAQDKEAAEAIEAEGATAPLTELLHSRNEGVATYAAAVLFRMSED
Test: Phage Library Screening with NGS, beta-catenin
Assay type: binding
Conditions: for Target Concentration 10 (phage screen NGS readout): beta-catenin target concentration 10; for Target Concentration 10 (phage screen NGS readout) / Target Concentration 30 (phage screen NGS readout) / Target Concentration 100 (phage screen NGS readout) / Target Concentration 300 (phage screen NGS readout): no competitor; for Target Concentration 30 (phage screen NGS readout): beta-catenin target concentration 30; for Target Concentration 100 (phage screen NGS readout): beta-catenin target concentration 100; for Target Concentration 300 (phage screen NGS readout): beta-catenin target concentration 300; for Target Concentration 1000 (phage screen NGS readout): beta-catenin target concentration 1000

| Target Concentration BLANK (phage screen NGS readout) (first column) | Target Concentration BLANK (phage screen NGS readout) (fourth column) | Target Concentration BLANK (phage screen NGS readout) (second column) | Target Concentration BLANK (phage screen NGS readout) (third column) | Target Concentration 10 (phage screen NGS readout) | Target Concentration 30 (phage screen NGS readout) | Target Concentration 100 (phage screen NGS readout) | Target Concentration 300 (phage screen NGS readout) | Target Concentration 1000 (phage screen NGS readout) (first 1000 column) | Target Concentration 1000 (phage screen NGS readout) (second 1000 column) | Compound |
| --- | --- | --- | --- | --- | --- | --- | --- | --- | --- | --- |
| 0 | 0 | 0 | 0 | 0 | 1 | 0 | 10 | 39 | 3 | DPAVLDCHIAALDCHAH |
| 2 | 2 | 2 | 1 | 5 | 5 | 3 | 88 | 115 | 137 | DPAYTYCQWAAEHCSLL |
| 0 | 0 | 0 | 0 | 0 | 1 | 0 | 23 | 9 | 57 | DPAQSDCDWAAEHCNLI |
| 0 | 0 | 0 | 0 | 2 | 1 | 17 | 99 | 61 | 107 | DPAEFYCEMAAVHCELL |
| 0 | 0 | 0 | 0 | 0 | 0 | 10 | 8 | 13 | 10 | DPALWNCDHAALLCDHQ |
| 0 | 0 | 0 | 0 | 0 | 0 | 0 | 0 | 0 | 13 | DPAVVECYEAAYTCQYI |
| 0 | 0 | 1 | 0 | 0 | 2 | 6 | 15 | 12 | 14 | DPADWICEHAALTCQEF |
| 0 | 1 | 0 | 0 | 3 | 6 | 86 | 257 | 283 | 238 | DPASWDCDHAALLCTLD |

The next lines start with the compound.

| Compound | Target Concentration BLANK (phage screen NGS readout) (first column) | Target Concentration BLANK (phage screen NGS readout) (fourth column) | Target Concentration BLANK (phage screen NGS readout) (second column) | Target Concentration BLANK (phage screen NGS readout) (third column) | Target Concentration 10 (phage screen NGS readout) | Target Concentration 30 (phage screen NGS readout) | Target Concentration 100 (phage screen NGS readout) | Target Concentration 300 (phage screen NGS readout) | Target Concentration 1000 (phage screen NGS readout) (first 1000 column) | Target Concentration 1000 (phage screen NGS readout) (second 1000 column) |
| --- | --- | --- | --- | --- | --- | --- | --- | --- | --- | --- |
| DPAYWVCEHAALLCTDY | 3 | 0 | 3 | 1 | 5 | 18 | 85 | 337 | 283 | 227 |
| DPAADDCVLAAHVCAYF | 7 | 0 | 1 | 0 | 8 | 46 | 144 | 397 | 407 | 343 |
| DPARHECILAAHICEWE | 1 | 0 | 2 | 2 | 41 | 151 | 612 | 1704 | 1683 | 1509 |
| DPANVECEWAAIHCSLV | 0 | 0 | 0 | 0 | 13 | 2 | 19 | 158 | 164 | 187 |
| DPAAQRCTWAAIHCELI | 0 | 0 | 0 | 2 | 0 | 0 | 7 | 39 | 25 | 93 |
| DPAWSDCIWAAEHCQLI | 0 | 0 | 1 | 0 | 0 | 3 | 5 | 127 | 109 | 85 |
| CC(=O)N[C@@H](CC(=O)O)C(=O)N1CCC[C@H]1C(=O)N[C@@H](C)C(=O)N[C@@H](CC(C)C)C(=O)N[C@@H](Cc1c[nH]c2ccccc12)C(=O)N[C@@H](CCC(N)=O)C(=O)N[C@@H](CS)C(=O)N[C@@H](CCC(=O)O)C(=O)N[C@@H](Cc1c[nH]cn1)C(=O)N[C@@H](C)C(=O)N[C@@H](C)C(=O)N[C@@H](CC(C)C)C(=O)N[C@@H](CC(C)C)C(=O)N[C@@H](CS)C(=O)N[C@@H](CC(=O)O)C(=O)N[C@H](C(=O)N[C@@H](Cc1c[nH]cn1)C(N)=O)C(C)C | 0 | 0 | 2 | 1 | 13 | 27 | 122 | 158 | 246 | 246 |
| DPAEVDCIMAAHICVWD | 0 | 0 | 0 | 0 | 0 | 0 | 31 | 42 | 40 | 51 |
| DPAILNCHVAAWNCHSF | 0 | 0 | 0 | 0 | 0 | 0 | 1 | 8 | 4 | 23 |
| DPAALSCYQAAFHCQYY | 0 | 0 | 0 | 0 | 0 | 0 | 1 | 5 | 14 | 17 |

Reference: patent US20240376151A1, “STAPLED PEPTIDES AND METHODS THEREOF” (FOG PHARMACEUTICALS, INC., priority 2022, published 2024)
